In patent US20260144882A1 (BIO THERA SOLUTIONS, published 2026):
Numbering of substitutions follows the chain as printed.

B1: antibody 10F4-2C12 (antibody, human IgG1, kappa, V domains shown)
VH: EVQLVESGGGLVQPGGSLRLSCAASGYNFGDYSMSWVRQAPGKGLEWVSVIDTTSAYTRYADSVKGRFTISRDNSKNTLYLQMNSLRAEDTAVYYCAREYSDVVDYVSVRTPLDYWGQGTLVTVSS
VL: DIQMTQSPSSLSASVGDRVTITCRASQGISSYLAWYQQKPGKAPKLLIYAASSLQSGVPSRFSGSGSGTDFTLTISSLQPEDFATYYCQQHYTTPPTFGQGTKVEIKR
B2: antibody 10F4-1A1 (antibody, human IgG1, kappa, V domains shown)
VH: EVQLVESGGGLVQPGGSLRLSCAASGFSFDNYDMSWVRQAPGKGLEWVSSIKPGSAYKFYADSVKGRFTISRDNSKNTLYLQMNSLRAEDTAVYYCAREYSDVVDYVSVRTPLDYWGQGTLVTVSS
VL: B1 VL
B3: antibody 10F4-1H6 (antibody, human IgG1, kappa, V domains shown)
VH: B2 VH with S28N, D30Y, N31D, S50G, P53T, G54H, A56G, Y57G, K58N, F59G
VL: B1 VL
B4: antibody 10F4-2C6 (antibody, human IgG1, kappa, V domains shown)
VH: EVQLVESGGGLVQPGGSLRLSCAASGFNFGGFDMSWVRQAPGKGLEWVSGIKQYKGYTSYADSVKGRFTISRDNSKNTLYLQMNSLRAEDTAVYYCAREYSDVVDYVSVRTPLDYWGQGTLVTVSS
VL: B1 VL
B5: antibody 10F4-1F8 (antibody, human IgG1, kappa, V domains shown)
VH: EVQLVESGGGLVQPGGSLRLSCAASGYTFTDYDMSWVRQAPGKGLEWVSSIITDGGGAFYADSVKGRFTISRDNSKNTLYLQMNSLRAEDTAVYYCAREYSDVVDYVSVRTPLDYWGQGTLVTVSS
VL: B1 VL
B6: antibody 10F4-1F1 (antibody, human IgG1, kappa, V domains shown)
VH: B2 VH with D30S, D33W, S50A, K52S, S55D, A56G, Y57T, K58I
VL: B1 VL
B7: antibody 10F4-2F11 (antibody, human IgG1, kappa, V domains shown)
VH: B5 VH with T28N, D31S, S50G, I52K, D54G, G57S, F59R
VL: B1 VL
B8: antibody 10F4-1H11 (antibody, human IgG1, kappa, V domains shown)
VH: B5 VH with D31G, Y32F, D33W, I52S, T53P, G55S, G57T, A58K, F59H
VL: B1 VL
B9: antibody 10F4-1G7 (antibody, human IgG1, kappa, V domains shown)
VH: B5 VH with T28N, T30G, T53G, D54H, G56D, G57T, A58K
VL: B1 VL
B10: antibody 10F4-1E1 (antibody, human IgG1, kappa, V domains shown)
VH: B2 VH with F27D, S28I, D30G, D33W, K52D, P53A, G54S, A56G, Y57N, K58R
VL: B1 VL
B11: antibody 10F4-1C10 (antibody, human IgG1, kappa, V domains shown)
VH: B4 VH with F27Y, G31S, F32Y, Q53T, K55G, Y57N, S59H
VL: B1 VL
B12: antibody 10F4-1C3 (antibody, human IgG1, kappa, V domains shown)
VH: B5 VH with T28S, T30S, D33W, I52K, T53Q, D54T, G57V, A58K, F59H
VL: B1 VL
B13: antibody 10F4-1 (antibody, human IgG1, kappa, V domains shown)
VH: B2 VH with F27D, D30T, D33W, S50G, K52S, P53Q, S55G, A56S, K58A, F59Y
VL: B1 VL
B14: antibody 1G8-2B3 (antibody, human IgG1, kappa, V domains shown)
VH: EVQLVESGGGLVQPGGSLRLSCAASGYNFTTSAMSWVRQAPGKGLEWVSRIYQDSSTTDYADSVKGRFTISRDNSKNTLYLQMNSLRAEDTAVYYCARQTEDRSYGYDLDYWGQGTLVTVSS
VL: B1 VL
B15: antibody 1F3-1H3 (antibody, human IgG1, kappa, V domains shown)
VH: EVQLVESGGGLVQPGGSLRLSCAASGFNFYNYGMSWVRQAPGKGLEWVSGIKPHSDVAHYADSVKGRFTISRDNSKNTLYLQMNSLRAEDTAVYYCARAELLAFDVYTASDYWGQGTLVTVSS
VL: B1 VL
B16: antibody 10F4-5 (antibody, human IgG1, kappa, V domains shown)
VH: B2 VH with S28I, N31G, S50V, P53D, G54H, S55G, A56G
VL: B1 VL
B17: antibody 1F3-2B1 (antibody, human IgG1, kappa, V domains shown)
VH: B15 VH with F27Y, Y30D, G33A, H54D, D56A, V57T, A58T, H59Y
VL: B1 VL
B18: antibody 1F3-2E8 (antibody, human IgG1, kappa, V domains shown)
VH: EVQLVESGGGLVQPGGSLRLSCAASGYSFSDYGMSWVRQAPGKGLEWVSWISPSKGSASYADSVKGRFTISRDNSKNTLYLQMNSLRAEDTAVYYCARAELLAFDVYTASDYWGQGTLVTVSS
VL: B1 VL
B19: antibody 1F3-1E1 (antibody, human IgG1, kappa, V domains shown)
VH: EVQLVESGGGLVQPGGSLRLSCAASGFSFDDYAMSWVRQAPGKGLEWVSIIYPTGSTNYYADSVKGRFTISRDNSKNTLYLQMNSLRAEDTAVYYCARAELLAFDVYTASDYWGQGTLVTVSS
VL: B1 VL
B20: antibody 10F4-3 (antibody, human IgG1, kappa, V domains shown)
VH: B1 VH with Y27F, N28S, Y32F, S33A, T53G, T54H, S55T, T58N, R59S
VL: B1 VL
B21: antibody 1F3-1B1 (antibody, human IgG1, kappa, V domains shown)
VH: B15 VH with N28T, Y30G, N31T, H54G, S55D, D56S, V57T, A58T, H59Y
VL: B1 VL

Each binder was assayed against T1, human Nectin-4 extracellular antigen hNectin-4-His (human, UniProt Q96NY8 32-349) (assay: ELISA, coated hNectin-4-His).
T1 construct: C-terminal 8xHis tag included
T1 sequence: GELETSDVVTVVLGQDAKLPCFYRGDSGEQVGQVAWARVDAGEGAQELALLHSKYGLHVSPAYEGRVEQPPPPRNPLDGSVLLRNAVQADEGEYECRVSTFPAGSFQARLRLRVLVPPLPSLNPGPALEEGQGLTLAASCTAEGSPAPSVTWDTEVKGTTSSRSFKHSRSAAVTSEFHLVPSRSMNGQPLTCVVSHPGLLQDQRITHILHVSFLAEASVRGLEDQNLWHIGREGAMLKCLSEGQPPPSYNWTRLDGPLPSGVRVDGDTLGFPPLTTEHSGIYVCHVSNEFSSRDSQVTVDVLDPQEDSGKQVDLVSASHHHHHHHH
Description: (§1) The binding activity of the antibodies was detected by ELISA.

Binder | EC50 [µg/mL]
B1 | 0.06
B2 | 0.051
B3 | 0.063
B4 | 0.09
B5 | 0.054
B6 | 0.057
B7 | 0.078
B8 | 0.059
B9 | 0.068
B10 | 0.067
B11 | 0.058
B12 | 0.053

These binders were tested against T1, human Nectin-4 extracellular antigen … (assay: SPR, antibody on Protein A chip, 1:1 fit).
Description: In this study, the affinity of the antibodies for the human Nectin-4 extracellular antigen was detected by surface plasmon resonance (SPR) technique (BIAcore: GE Healthcare, T200).

Binder | Kd [nM] | koff [s⁻¹] | kon [M⁻¹ s⁻¹]
B13 | 0.545 | 0.000226 | 415000
B14 | 1.98 | 0.00147 | 742000
B1 | 0.533 | 0.000304 | 570000
B2 | 0.432 | 0.000186 | 430000
B15 | 0.62 | 0.00105 | 1.69e+06
B3 | 0.505 | 0.000151 | 299000
B16 | 0.399 | 0.000137 | 343000
B17 | 0.241 | 0.000317 | 1.32e+06
B4 | 0.285 | 8.36e-05 | 294000
B5 | 0.558 | 0.000237 | 424000
B18 | 0.872 | 0.00102 | 1.17e+06
B19 | 0.141 | 0.000212 | 1.51e+06
B20 | 0.352 | 0.000122 | 346000
B21 | 0.17 | 0.000204 | 1.2e+06
B7 | 0.396 | 0.000161 | 406000
B8 | 0.605 | 0.000212 | 350000
B9 | 0.374 | 0.000145 | 389000
B11 | 0.435 | 0.000116 | 265000
B12 | 0.589 | 0.000218 | 370000

What follows are binders tested against T2, human Nectin-4, full length on cells (human, UniProt Q96NY8 32-510) (assay: flow cytometry, T-47D cells, antibody bound on ice, 0 h at 37 C).
T2 construct: whole, on cells; T-47D cells positive for Nectin-4 expression; also called Nectin-4 on T-47D cells; CHO-Nectin-4
T2 sequence (looked up): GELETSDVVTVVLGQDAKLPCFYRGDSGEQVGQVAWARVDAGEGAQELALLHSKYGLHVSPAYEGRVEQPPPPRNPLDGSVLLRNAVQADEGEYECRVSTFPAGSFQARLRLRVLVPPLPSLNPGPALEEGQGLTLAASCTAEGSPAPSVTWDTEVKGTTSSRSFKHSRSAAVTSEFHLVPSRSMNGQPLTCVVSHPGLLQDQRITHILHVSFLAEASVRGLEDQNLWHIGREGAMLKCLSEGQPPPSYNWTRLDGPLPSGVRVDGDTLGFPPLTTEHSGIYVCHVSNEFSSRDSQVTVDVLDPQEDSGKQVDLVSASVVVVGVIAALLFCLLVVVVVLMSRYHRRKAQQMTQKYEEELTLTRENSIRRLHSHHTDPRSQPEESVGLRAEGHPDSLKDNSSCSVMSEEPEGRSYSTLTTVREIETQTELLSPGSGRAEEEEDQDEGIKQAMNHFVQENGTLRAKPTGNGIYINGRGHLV
Method: In this assay, the relative amount of antibodies remaining on the cell surface after co-incubation at 37° C. for a certain period of time was detected by FACS to reflect the endocytosis efficiency. The procedures are briefly described as follows: T-47D cells (human ductal breast cancer cells, derived from the Cell Bank of Chinese Academy of Sciences, Cat.No. TCHu 87); the antibodies of interest were adjusted to 10 µg/mL and co-incubated with the cells on ice for 1 h; the cells were washed 3 times with pre-cooled PBS, and then placed at 37° C. and incubated for 0 h, 2 h and 4 h; 0.2% N₃Na was added to stop the endocytosis reaction; the cells were washed with PBS thrice, followed by the addition of the PE-labeled anti-human Fc secondary antibody (Invitrogen 12-4998-82); the cells were incubated at 4° C. for 30 min; the red fluorescence signal was detected on a flow cytometer.

Binder | MFI (mean fluorescence intensity) 0 h [MFI]
B13 | 58600
B16 | 63400
B17 | 59400
B18 | 58200
B19 | 73400
B20 | 61200
B21 | 65300

Target: T1, human Nectin-4 extracellular antigen …
Assay: ELISA, coated hNectin-4-His
Remark: another data set of the same source
Description: as §1

Binder | EC50 [µg/mL]
B14 | 0.005
B15 | 0.008
B17 | 0.014
B18 | 0.009
B19 | 0.017
B21 | 0.016
